In patent EP3515493A1:

Biological target: HLA-DR, human (human)
Assay: cell-based or functional assay

Row | Substance | lysis rate (LDH cytotoxicity assay, Raji target cells)
1 | Lym-2 CAR | 22%
2 | Lym-1 CAR | 22%
